The supplement of paper PMC7877785
± gives the uncertainty stated by the source.

Experiment: self-splicing fitness, log relative to wild type (ln ratio); higher = more splicing; Tetrahymena group I intron in knt gene, E. coli kanamycin selection, DiMSum; sequences stand for … in CUCUCU…GGAGGGAAAAGUUAUCAGGCAUGCACCUGGUAGCUAGUCUUUAAACCAAUAGAUUGCAUCGGUUUAAAAGGCAAGACCGUCAAAUUGCGGGAAAGGGGUCAACAGCCGUUCAGUACCAAGUCUCAGGGGAAACUUUGAGAUGGCCUUGCAAAGGGUAUGGUAAUAAGCUGACGGACAUGGUCCUAACCACGCAGCCAAGUCCUAAGUCAACAGAUCUUCUGUUGAUAUGGAUGCAGUUCACAGACUAAAUGUCGGUCGGGGAAGAUGUAUUCUUCUCAUAAGAUAUAGUCGGACCUCUCCUUAAUGGGAGCUAGCGGAUGAAGUGAUGCAACACUGGAGCCGCUGGGAACUAAUUUGUAUGCGAAAGUAUAUUGAUUAGUUUUGGAGUACUCGUGGUCG
Method in brief: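 Fitness was computed with DiMSum as the error-weighted combination of replicate fold changes, kanamycin versus none, each normalised to wild type. The library randomised all eight intron nucleotides of the P1ex region, with the intron placed in the knt kanamycin-resistance gene on pET-22b(+) in E. coli BL21(DE3). Six replicate transformations were grown overnight at 37°C or 30°C on LB agar with or without 25 μg/mL kanamycin, plus 100 μg/mL carbenicillin, 50 μM IPTG and 0.2% rhamnose. Pooled colonies were amplicon-sequenced on an Illumina HiSeq 2500.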

GGUUAGCAAUAUUACGGAAA
self-splicing fitness (ln) (30 °C): -1.53 ± 0.25
self-splicing fitness (ln) (37 °C): -1.76 ± 0.22

UCGGAGCAAUAUUACGUAGU
self-splicing fitness (ln) (37 °C): -0.551 ± 0.29

GUAAAGCAAUAUUACGAGUU
self-splicing fitness (ln) (30 °C): -1.12 ± 0.093
self-splicing fitness (ln) (37 °C): -0.815 ± 0.12

UUACAGCAAUAUUACGAUCC
self-splicing fitness (ln) (30 °C): -3.16 ± 0.13
self-splicing fitness (ln) (37 °C): -2.28 ± 0.16

AUCAAGCAAUAUUACGCUAC
self-splicing fitness (ln) (37 °C): -0.41 ± 0.33

UUUUAGCAAUAUUACGAAUU
self-splicing fitness (ln) (30 °C): -3.26 ± 0.38
self-splicing fitness (ln) (37 °C): -1.23 ± 0.29

GAAGAGCAAUAUUACGUUUC
self-splicing fitness (ln) (30 °C): -2.8 ± 0.14
self-splicing fitness (ln) (37 °C): -2.74 ± 0.22

ACCGAGCAAUAUUACGCUCG
self-splicing fitness (ln) (30 °C): -3.22 ± 0.32
self-splicing fitness (ln) (37 °C): -1.61 ± 0.2

CGAAAGCAAUAUUACGGGCG
self-splicing fitness (ln) (30 °C): -0.207 ± 0.098
self-splicing fitness (ln) (37 °C): -0.157 ± 0.13

UCAAAGCAAUAUUACGUGCU
self-splicing fitness (ln) (30 °C): -4.45 ± 0.3
self-splicing fitness (ln) (37 °C): -2.93 ± 0.21

UGCAAGCAAUAUUACGAAAU
self-splicing fitness (ln) (30 °C): -3.34 ± 0.2
self-splicing fitness (ln) (37 °C): -2.04 ± 0.22

ACAGAGCAAUAUUACGUUGG
self-splicing fitness (ln) (30 °C): -2.73 ± 0.16
self-splicing fitness (ln) (37 °C): -3.57 ± 0.19

ACAGAGCAAUAUUACGCGUU
self-splicing fitness (ln) (37 °C): -1.16 ± 0.29

UUGCAGCAAUAUUACGUGUA
self-splicing fitness (ln) (30 °C): -1.52 ± 0.11
self-splicing fitness (ln) (37 °C): -1.07 ± 0.1

GUUAAGCAAUAUUACGUCUA
self-splicing fitness (ln) (30 °C): -0.524 ± 0.1
self-splicing fitness (ln) (37 °C): -0.261 ± 0.099

GUGAAGCAAUAUUACGUUUU
self-splicing fitness (ln) (30 °C): -4.1 ± 0.14
self-splicing fitness (ln) (37 °C): -3.88 ± 0.22

UGGCAGCAAUAUUACGCUGG
self-splicing fitness (ln) (30 °C): -3.47 ± 0.33
self-splicing fitness (ln) (37 °C): -2.53 ± 0.29

ACCCAGCAAUAUUACGCAGU
self-splicing fitness (ln) (30 °C): -0.609 ± 0.055
self-splicing fitness (ln) (37 °C): -0.106 ± 0.066

GUAUAGCAAUAUUACGGCAC
self-splicing fitness (ln) (30 °C): -0.331 ± 0.3

UCAAAGCAAUAUUACGGCUC
self-splicing fitness (ln) (37 °C): -0.154 ± 0.2

AAGAAGCAAUAUUACGUCCA
self-splicing fitness (ln) (30 °C): -0.641 ± 0.13
self-splicing fitness (ln) (37 °C): 0.0432 ± 0.14

UUCAAGCAAUAUUACGUUUU
self-splicing fitness (ln) (30 °C): -3.78 ± 0.17
self-splicing fitness (ln) (37 °C): -2.65 ± 0.16

UGUCAGCAAUAUUACGAAAC
self-splicing fitness (ln) (37 °C): -0.978 ± 0.25

CCACAGCAAUAUUACGGCUU
self-splicing fitness (ln) (30 °C): -3.62 ± 0.14
self-splicing fitness (ln) (37 °C): -2.71 ± 0.18

CUCGAGCAAUAUUACGGUCA
self-splicing fitness (ln) (30 °C): -2.89 ± 0.28
self-splicing fitness (ln) (37 °C): -0.817 ± 0.23

UCCGAGCAAUAUUACGCUCA
self-splicing fitness (ln) (30 °C): -3.08 ± 0.32
self-splicing fitness (ln) (37 °C): -2.3 ± 0.47

CCAUAGCAAUAUUACGGUUA
self-splicing fitness (ln) (30 °C): -3.57 ± 0.29
self-splicing fitness (ln) (37 °C): -2.73 ± 0.21

UUGCAGCAAUAUUACGUGUG
self-splicing fitness (ln) (30 °C): -2.1 ± 0.087
self-splicing fitness (ln) (37 °C): -1.68 ± 0.12

CCAAAGCAAUAUUACGUCAA
self-splicing fitness (ln) (30 °C): -3.22 ± 0.14
self-splicing fitness (ln) (37 °C): -2.02 ± 0.13

GCUGAGCAAUAUUACGUCCU
self-splicing fitness (ln) (30 °C): -1.52 ± 0.15
self-splicing fitness (ln) (37 °C): -1.06 ± 0.2

UAGAAGCAAUAUUACGCAUA
self-splicing fitness (ln) (30 °C): -1.55 ± 0.17
self-splicing fitness (ln) (37 °C): -1.36 ± 0.12

UGGUAGCAAUAUUACGCCUC
self-splicing fitness (ln) (30 °C): -1.82 ± 0.39
self-splicing fitness (ln) (37 °C): -2.03 ± 0.39

AAGUAGCAAUAUUACGGUGC
self-splicing fitness (ln) (37 °C): -2.76 ± 0.32

AAUAAGCAAUAUUACGAUGC
self-splicing fitness (ln) (30 °C): -2.4 ± 0.13
self-splicing fitness (ln) (37 °C): -1.45 ± 0.15

AUCAAGCAAUAUUACGCCGU
self-splicing fitness (ln) (30 °C): -1.19 ± 0.087
self-splicing fitness (ln) (37 °C): -0.429 ± 0.1

GCUCAGCAAUAUUACGCAUA
self-splicing fitness (ln) (30 °C): -1.48 ± 0.18
self-splicing fitness (ln) (37 °C): 0.283 ± 0.17

CCUUAGCAAUAUUACGCCGU
self-splicing fitness (ln) (30 °C): -2.66 ± 0.22
self-splicing fitness (ln) (37 °C): -2.18 ± 0.24

GUACAGCAAUAUUACGACGG
self-splicing fitness (ln) (30 °C): -3.75 ± 0.22
self-splicing fitness (ln) (37 °C): -2.89 ± 0.21

CUGAAGCAAUAUUACGUCUU
self-splicing fitness (ln) (30 °C): -3.7 ± 0.24
self-splicing fitness (ln) (37 °C): -2.64 ± 0.25

UAGCAGCAAUAUUACGAGCA
self-splicing fitness (ln) (30 °C): -1.48 ± 0.13
self-splicing fitness (ln) (37 °C): 0.249 ± 0.13

GGGCAGCAAUAUUACGUGGG
self-splicing fitness (ln) (30 °C): -3.1 ± 0.12
self-splicing fitness (ln) (37 °C): -2.62 ± 0.13

GCGCAGCAAUAUUACGCCUC
self-splicing fitness (ln) (30 °C): 0.178 ± 0.29
self-splicing fitness (ln) (37 °C): -1.24 ± 0.29

GACAAGCAAUAUUACGCUAC
self-splicing fitness (ln) (30 °C): -3.62 ± 0.31
self-splicing fitness (ln) (37 °C): -2.54 ± 0.23

UCUGAGCAAUAUUACGGCUG
self-splicing fitness (ln) (30 °C): -3.48 ± 0.2
self-splicing fitness (ln) (37 °C): -2.22 ± 0.21
